In publication PMC4823995:

Biological target: Mcm6-SuOn (budding yeast) (UniProt Q02724)
Assay: co-IP

## Glc7 phosphatase (PP1) (from UniProt P32598 1-312) (enzyme)
  fold enrichment of Glc7 in the immunoprecipitate against Mcm6-ctrl: 2 fold
